According to the DeepSol protein solubility set:

Assay: soluble on expression in E. coli; label from the status in PepcDB or PDB records

| Sequence | soluble on expression in E. coli |
| --- | --- |
| MGSDKIHHHHHHMFVMLAMANVTTSAPRAVAPAYDPRLVRAAVAMNENDLPTAEPLLRALLKDDPFDVRAIRLFAELAGRIGRYQDAENLLRRAIELAPQFTAARANLALVLYRTNRAPEALEELAKVTADDPENVGHANLQAAAYGRIGEFDEALALYEQVLKQAAAQPRVWMSYGHMLKTVGRQADGVAAYRRAIELLPTLGEAWWSLANLKTVRFDDADIAAMEAALRVPDLAPEDQWHLDFALGKAFEDRGEAERSFRHYAAGNALRKKRMPYQAEEITAQVDRAVAAFTPATVAGLSGKGCEAGDPIFVLGMPRAGSTLVEQILASHSMVEGTSELADIGYLARTVEGYPAGLSSLQGNDLRALGEQYLARTRIQRHTDRPLFVDKMPNNWIHVPFIRAILPNAKIVDARRHPLSCCFSNFKQHFARGQGFSYSLEDMGRYYRDYVRAMAHFDKVIPGAVHRVIYERMVEDTEAEVRALLAYCGLAFEDNCLAFHRTERAVRTASSEQVRQPIFRDGTDAWKAFEPWLGELKVALGAVQDFYPEAPPFD | not soluble |
| SLRAEKSDDPLYPLTIIHLNDFHARFEETNTVSTRCKPDEGERCIGGYGRVVSRVKSLQQEYADRNPIYLNAGDSFQGTIWYTLLRWNVTAYFLNLLPADAMTLGNHEFDHGVEGLVPFLGAIDSPMLVANIDDREEPTLQGKYQRNVVLERGGRKIGIIGVIHHATDTLSMTDRVRFLDEVQCINQEATALKQLGVDIIVVLSHCGFTIDQQIARECPDVDVVVGGHSHTLLHTGTVADWPDVPAGSFPFVVEQAAGRRVLIVQAGSFTKYLGHLVVYFDERGEAVRWEGNTEYLDESFPKDEQIERELVPWRTQVDALAVRPVGVSRVFLSKPACRTGECNFGSFVADAFVDYYVGRGEAEHEWTYAAIGITNDGGLRTSLAPGTLTYEDLVTAIPYENTVDTFELRGQYLLDALEYSASRYDTADVLQFAGLRVVFNLTRPALQRVQRVDVRCRVCRIPRYEPLDVNATYRIAIAAWIGSGGNGYTMFGQHRTNVRVGPLDIDVFERYVAKMSPIMQGTDGRMVFVR | not soluble |
| SWQTYVDTNLVGTGAVTQAAIIGHDGNTWATSAGFAVSPANGAALANAFKDATAIRSNGFELAGTRYVTIRADDRSVYGKKGSAGVITVKTSKAILIGVYNEKIQPGTAANVVEKLADYLIGQGF | soluble |
| MGHHHHHHSHMEALARLHLTVTRAYKVNTDINFEVFIHKVDGLSDDHKIETQRDIHQRANDDLADAGLEKIHLSFYLTSIYDHSIFEAFSKVVQKLIPQLPTLENLLNIFISNSGIEKAFLFDVVSKIYIATDSTPVDMQTYELCCDMIDVVIDISCIYGLKEDGAGTPYDKESTAIIKLNNTTVLYLKEVTKFLALVCFVREESFERKGLIDYNFHCFRKAIHEVFEVRMKVVKSRKVQNRLQKKKRATPNGTPRVLL | soluble |
| MQNTAHIIGAGISGLSAAVRLANAGFKVAVHEATHQAGGRCRSYFDGATNLTIDNGNHLLLSGNSHARAYARSIGTEAGLVGPESAQFPFVDIKTGQRWQIDLGTGRLPTWVLDESRRVPDTGLTDYLKLAPLIWASEETLVGKSIPTEGVLYQRLVQPLLLAALNVDPPEGSAGLAGAIVRETLLAGGQACRPLIARDGLSAVLIEPAVKFLQERGHSVQLGHELRAFVTSDGKAGALNFGGEDVIQLADGDVVVMAVPPRAAASLLPGLKTPTEFRAIVNAHFRFEPPPGSPPILGVIGGIVEWLFAFPNRLSVTISNGDRLVDMPREELAQAIWNDVCEAGGVSGELPPWQIVRERRATFAATPAQNALRPGPVTALKNLFLAGDWTATGLPATIEGSVRSGDRAADLVLAAQRPLEHHHHHH | not soluble |
| MGSDKIHHHHHHMKVQFLGAAQTVTGSCYMIEANGVRFAIDCGMHQGNTEIEKRNDDTEIYRPSDIAFFLVTHAHIDHTGLLPAMTRNGFTGPIYCTEPTADLLGIMLQDSAHIQEMEAEWQSRKLSRNGRIKKVEPLYTTEDATRAAEMLRPVDYGNSFEPSPGIRVTYKDAGHILGSAFLELEVTENGRPTRLVFSGDLGRPDALIVNDPQKAAPADYLFLESTYGDRDHKDPRFSRDELAEAIAYSYGNGEKVIIPAFAVERTQEVLYTLYLLHKEGRLPADMPVFVDSPLAIRATEIFRKHPKYYDDNMKKLVDSGEDPLALPNLKYTLNTQDSQALNVRSGPAVIISASGMCNAGRIKHHLRHNLWRPGASIVFVGYQGVGTPGRKIVDGNATVRLFNEDIAVKAKVFTIGSFSAHAGQSQILEWVSAFAHPQMEVFLVHGEEKAQTTLAGLLRERFNLPVSIPGYLEEVTLKPGRESLHQTDEARAHPDVDWEFLLAETEGKVAQLRKRLAGVEKRPWVEQTDIRERLVEINGELLHFLSQL | not soluble |
| MNMDVNAVKNSTRGKHWFNLLTQGFNLIASGIDSLLIAEGQLGENKISVFCVVPDSHNHFPRARQGEVGLLEGWSLAQAIDQIIESDQNLTHKRGILCIVDVPSQAYGRREELLGIHQALAAAADSYVRARLAGHPVVSLLVGKSMSGAFLAHGYQANRILALKDQGVMVHAMGKESAARVTLRTVDELENLAANIPPMAYDIESYNSLGLLSGLLNVSHADHPTTSDIDYIQQTLSQTFQEIRNQGTSDLKHRLSAKNREASVHVRELLREQWS | not soluble |
| MSTTIQYNSNYADYSISSYLREWANNFGDIDQAPAETKDRGSFSGSSTLFSGTQYAIGSSHSNPEGMIAEGDLKYSFMPQHTFHGQIDTLQFGKDLATNAGGPSAGKHLEKIDITFNELDLSGEFDSGKSMTENHQGDMHKSVRGLMKGNPDPMLEVMKAKGINVDTAFKDLSIASQYPDSGYMSDAPMVDTVGVVDCHDMLLAA | not soluble |
| MGSDKIHHHHHHMVNFSYRVFAAVVEKKTFFHAAESLNVTPSAVSHSISQLENELGFPLFLRNHSGVELTNDGKTVLPVIQAILNTEEELYQVSASIKGLNSGRIRIGAFSSVCINWLPTIIRRFKNQYPQVEVTVFQGNFNQIADGVSNGSIDIGFSSLPVDDKLLVEPLIKDRIYCVAPSDFVPKDKMNVTNQDIGRRRFILQQIDYDRDTKKALDQYNVTPNSLTYSIDDQSILSMVESGLGLGILPELALKKLSGNVHIYPFDKNFARTICLVTNKNLAQAPSTKRMLKEINSFLRSNYKNQFLG | not soluble |
| DILLTQSPAILSVSPGERVSFSCRASQSIGTDIHWYQQRTNGSPRLLIKYASESISGIPSRFSGSGSGTDFTLSINSVESEDIANYYCQQSNRWPFTFGSGTKLEIKRADAAPTVSIFPPSSEQLTSGGASVVCFLNNFYPKDINVKWKIDGSERQNGVLNSWTDQDSKDSTYSMSSTLTLTKDEYERHNSYTCEATHKTSTSPIVKSFNRN | soluble |
| MGSDKIHHHHHHMSFTVATIAREPWPVLNRFLTWHLDQGAERIILYLDDPDDPSLPRLRGEPRIDARPCTPAFWRQIGLKQDARFTRRQRGVLSQAYHELEDGWLLVLDADEMMWMSGRTIPEALATLPDEAQSLRVRSAEQVRLSDGSEAFRTPIERAAVDRVYGDLSGLLRARFGFTYHPEGKSFHRAGQRLNMKLHWAQDANGDRTPGPVWGRAERAYLMHYAAPDYARWRAKVNWRAGASGFVLPVKEQITEIAESNDPEAGYQDLYRTLHGLTDAQALALEAEGGLLRDGPKVLDLGG | not soluble |
| MVASYEIEFIGEGEVAGILREALRTDSRVESFEEFERGFKLRLVGAKRRITIVCKGSVQSDDCLLIVNARKMPENGGIALNADKIAERCGSKPEIAMLGAIAKLGVVDLKRLMSVIYREMGYGDVLAVKKGFEATNI | not soluble |
| MGHHHHHHSHMEGTYITSEHSYQKPQSFGQDCKSLADPGSSDDDDVSSLEEEQEFHMRSKNSLQYSAKEHGMPEKNPAEGNTVFVYNDKKGTEDPGDSHLQWQLNLLTHIENVQNEVTSRMDLIEKEVDVLESWLDFTGELEPPDPLARLPQLKRHIKQLLIDMGKVQQIATLCSV | not soluble |
| MDKIPDIMAKIKTMAPAIRSIDTRTVKVAPKVADAELQSAEYRQWRNAVYRRAGYRCEAIDNGRRCTKAAPAHRLFADHIVERRDGGALLDAANGQCLCGSHHTRKTVAARAARLSSRSRGGGSNLLEHHHHHH | soluble |
| MLRSLLIRATAPAVCAGLLWTAAPAHAQSPAPTRPVSSDTWADRATGTYRALQKHLYEGPGDHGLYLEHTPRQATDQEHSYLWPFREAAQAAVDMQRLPRTGPAYRQDAAERFDTAELYHTGGERPGYRSYLPAPLGTGGDVYYDDNAVVALSQLDQYEETGDARYLRRAEQVVPVVSRAWDGDAAKACPGGMDWYDAPGNTIRATNVTALSAQLAARLYEHTRNRAYLDKAEQWYGWVYACMRKAPGLYVNDRGDDGSTNETLWTYNSGAMIGTATALYRGTGDARYLEKAVADARGSLAYWTGGTRLHDQPAVFNAFYFKDLLDLDAVRPDSAYLSAMSAYADNTYRSNRDASSGLFRFQPSNGGDYDPAAPAATLNQSAMVQIFATLADATRRDHRTSLEHHHHHH | not soluble |
| MEKKKLTTAAGAPVVDNNNVITAGPRGPMLLQDVWFLEKLAHFDREVIPERRMFAKGSGAFGTFTVTHDITKYTRAKIFSEVGKKTEMFARFSTVAGERGAADAERDIRGFALKFYTEEGNWDMVGNNTPVFYLRDPLKFPDLNHIVKRDPRTNMRNMAYKWDFFSHLPESLHQLTIDMSDRGLPLSYRFVHGFGSHTYSFINKDNERFWVKFHFRCQQGIKNLMDDEAEALVGKDRESSQRDLFEAIERGDYPRWKLQIQIMPEKEASTVPYNPFDLTKVWPHADYPLMDVGYFELNRNPDNYFSDVEQAAFSPANIVPGISFSPDKMLQGRLFSYGDAHRYRLGVNHHQIPVNAPKCPFHNYHRDGAMRVDGNSGNGITYEPNSGGVFQEQPDFKEPPLSIEGAADHWNHREDEDYFSQPRALYELLSDDEHQRMFARIAGELSQASKETQQRQIDLFTKVHPEYGAGVEKAIKVLEGKDAK | soluble |
| MSLGDQLKIIQDGQSFAFSLDTLLLAYWAKEAIKNRSKVVELCSGNAAASLYMAAFNKAHYDDVELQEDIVSKARRSVELNDMQDRITVHQGNVKDAGSFLRKDSYDVVVVNPPYFKAPAGHKLNPDRSKAIARHELEINLEEIIAVSAGLLKMKGKMFMVHRPERLGEIINYGFKHDLAVKTVQPFVSRRGQDANLVIVEAVRSGKGDGLVLRDAIEVHEADGSNTPAIKEILEAKEGHHHHHH | soluble |
| GAPLKAVSAFAPPLHTQDFNLYSGEVHAHFTDYEAGMAFARQENKPVLLDFSGHGCVNCRKMENAVWIDPTVKSMLEKDYVLITLMVDEKKPLAEPLTIVFDGKEKTLRTVGDKWSYLQSHKFGANAQPFYVAIDHEGKPLSASYSYNEDVPLYVDFLKGGLQEFKKRKNK | not soluble |
| INKVPVTVFLWRPEKYWPADFVSENVKNFGYTVEEFTSGKVLYGNIVHPDDFERVERELSRRIEEDYVDFSQEYRILTKSGEARWVEERTFIEADENGVVKYLKGIILDIT | not soluble |
| MGSDKIHHHHHHMPKNWTLKVDQYINANSNCIIATAHVDSFPTDLPLEPNIREPNLKSSTYKQIFDSLTTEPEKFFQRNNGIVLCVNKVKPKNRTELELEILQANEGGNDGVINGGHSVSAFEQARKFKYDLTLARVKVTIHIGLSEDEAKDIALASNTSAPVDARSKVNARGDYQFIKQFLAQLEREEDTKFRIAYYQNQSGAPKSPQCNVNHLIKLMNCLDRNKYNPNTNKSKGKHPPVSNNPSLTDAERERLSRLLPLLPKALWIEQRFFKTIEAYITNPKKKGVDLASIDARKNTLLPDSRYSFGFSAPADIAMPIVAAYRVFLDENYNWLIPFDDFAEDFLQHLWNNYYRKYLVSEKFSGNTVGSKICRNPVIWDSLYVSAQSYLNQQLLKMVSSSKNKREELKLAN | not soluble |
